Source: US20090170069

Biological target: T1, NFluc-Pum2 (pumilio domain) (UniProt Q8TB72)
T1 sequence: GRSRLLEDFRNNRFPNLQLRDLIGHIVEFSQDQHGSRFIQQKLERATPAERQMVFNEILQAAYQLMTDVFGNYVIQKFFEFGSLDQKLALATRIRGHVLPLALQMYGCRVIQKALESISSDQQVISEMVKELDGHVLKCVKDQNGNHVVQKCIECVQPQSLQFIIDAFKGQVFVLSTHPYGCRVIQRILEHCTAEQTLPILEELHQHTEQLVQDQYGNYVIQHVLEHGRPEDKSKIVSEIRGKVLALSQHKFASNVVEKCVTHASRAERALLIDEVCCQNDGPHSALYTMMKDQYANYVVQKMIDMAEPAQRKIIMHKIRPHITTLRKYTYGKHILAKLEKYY
Details: ternary with CFluc-Ago

## CAUGGUGUAUAUAGUCUUUUGAUAUAGCGGC / CUAUAUACACCAUGUU [Pum target RNA + Pum1 guide]
  activity (fold luminescence vs controls): 3
